Test results taken from PMC5156300 (mBio, 2016).

Molecular target: T1, NP from influenza virus A/WSN/33 with a C-terminal His tag (Influenza A virus A/WSN/33), P15682
T1 chain: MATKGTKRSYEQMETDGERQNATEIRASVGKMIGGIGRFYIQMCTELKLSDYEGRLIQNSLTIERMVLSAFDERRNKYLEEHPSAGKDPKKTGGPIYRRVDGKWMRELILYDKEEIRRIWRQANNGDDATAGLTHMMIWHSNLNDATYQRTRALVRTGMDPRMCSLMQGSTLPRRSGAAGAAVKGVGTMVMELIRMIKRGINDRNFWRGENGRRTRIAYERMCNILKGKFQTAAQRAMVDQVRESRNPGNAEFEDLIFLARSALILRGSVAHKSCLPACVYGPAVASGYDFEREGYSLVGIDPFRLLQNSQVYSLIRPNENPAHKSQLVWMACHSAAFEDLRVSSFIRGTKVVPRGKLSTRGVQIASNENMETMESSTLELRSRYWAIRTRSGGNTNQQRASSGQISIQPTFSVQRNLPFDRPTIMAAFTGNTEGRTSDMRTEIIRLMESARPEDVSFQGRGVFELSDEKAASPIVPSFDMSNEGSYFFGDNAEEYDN
Test: crystal structure
Conditions: remark: other sources report otherwise

B1: NP from influenza virus A/WSN/33 with a C-terminal His tag, P15682 1-498 (natural protein)
chain: T1 chain
For B1, which stoichiometry N is on record?
The stoichiometry N was 3.
